Data: patent WO2021228904A1 (dated 2021)
Residue numbers refer to the chain shown, from its start.

B1: SEQ ID NOs: 405/409 (HCVR/LCVR) (antibody, V domains shown)
VH: EVQLVESGAEVKKPGASVKVSCKVSGYTLPELSMHWVRQTPGKGLEWMGGFDPEDGETIYAQKFQGRVTMTEDTSTDTAYMELSSLRSEDTAVYYCATGPTIAAAATNWFDPGGQGTLVTVSS
VL: QPVLTQPASVSGSPGQSITISCTGTSSDVGGYNYVSWYQQHPGKAPKLMIYDVSNRPSGVSNRFSGSRSGDTASLTISGLQAEDEADYYCSSYTSSSTWVFGGGTKLTVL
B2: COVA1-18 (antibody, V domains shown)
VH: EVQLVESGGGLVQPGGSLRLSCAASGFTVSSNYMSWVRQAPGKGLEWVSVIYSGGSTYYADSVKGRFTISRDNSKNTLYLQMNSLRAEDTAVYYCARVEWAAAGTFYWGQGTLVTVSS
VL: QSALTQEPSLTVSPGGTVTLTCGSSTGAVTSGHYPYWFQQKPGQAPRTLIYDTSNKRSWTPARFSGSLLGGKAALTLSGAQPEDEAEYYCLLSYSGVWVFGGGTKLTVL
B3: 001_P1G11 (antibody, V domains shown)
VH: EVQLVQSGTEVKKPGASVKVSCKASGYTFPGYYIHWVRQAPGQGLEWMGWINPNSGVAKSAQKFQGRVTMTRDSSISTVYLDVTSDDTAVYYCARDLVWATVSGTMDVWGQGTTVTVSS
VL: QSALTQPPSASGSPGQSVTISCTGTSSDIGTYNYVSWYQQHPGKAPKLMIYEVTKRPSGVPDRFSGSKSGNTASLTVSGLQADDEGDYYCSSYVGNNNWVFGGGTKLTVL
B4: SEQ ID NOs: 621/625 (HCVR/LCVR) (antibody, V domains shown)
VH: QVQLVQSGAEVKKPGASVKVSCKVSGYTLTELSMHWVRQAPGKGLEWMGGFDPEDGETIYAQKFQGRVTMTEDTSTDTAYMELSSLRSEDTAVYYCATAYSVDTAMVRGVGYWGQGTLVTVSS
VL: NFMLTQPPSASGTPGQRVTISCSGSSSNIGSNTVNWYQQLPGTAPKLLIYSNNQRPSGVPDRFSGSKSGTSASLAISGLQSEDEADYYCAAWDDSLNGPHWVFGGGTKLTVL
B5: SEQ ID NOs: 605/609 (HCVR/LCVR) (antibody, V domains shown)
VH: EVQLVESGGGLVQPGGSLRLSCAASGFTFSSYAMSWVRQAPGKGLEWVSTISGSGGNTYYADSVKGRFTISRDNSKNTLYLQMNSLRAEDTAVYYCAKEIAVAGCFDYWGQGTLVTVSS
VL: QTVVTQPPSVSVSPGQTARITCSGDALPKQYAYWYQQKPGQAPVLVIYKDSERPSGIPERFSGSSSGTTVTLTISGVQAEDEADYYCQSADSSGTYRVFGGGTKLTVL
B6: SEQ ID NOs: 41/45 (HCVR/LCVR) (antibody, V domains shown)
V domain 1: EVQLVQSGGGLVQPGRSLRLSCAASGFTFGEYAMHWVRQAPGKGLEWVSGISWNSGSIDYADSVKGRFTISRDNAKNSLYLQMNSLRAEDTALYYCAKDMGEAVAGTHYGMDVWGQGTMVTASS
V domain 2: QSALTQPPSVSVSPGQTASIPCSGDKLGDIYACWYQQKPGQSPVLVIYQDTKRPSGIPERFSGSNSGNTATLTISGTQAMDEADYYCQAWGSTTAKVFGGGTKLTVP
B7: SEQ ID NOs: 557/561 (HCVR/LCVR) (antibody, V domains shown)
VH: EVQLVESGGGVVQPGRSLRLSCAASGFTFSSYAMHWVRQAPGKGLEWVAVISYDGSYKYYADSVKGRFTISRDNSKNTLYLQMNSLTAEDTAVYYCAREGSRQWLVIYFDYWGQGTLVTVSS
VL: AIRMTQSPSSLSASVGDRVTITCRASQSISSYLNWYQQKPGKAPKLLIYAASSLQSGVPSRFSGSGSGTDFTLTISSLQPEDFATYYCQQSYTTFIYTFGQGTKLEIK
B8: 002_P2C4 (antibody, V domains shown)
VH: QVQLVESGAEVKKPGSSVKVSCKASGGTFSSYGINWVRQAPGQGLEWMGGIIPIFGTANYAQKFQGRVTITTDESTSTAYMELSSLRSEDTAVYYCASFGDDSGDEGVRWGQGTLVTVSS
VL: EIVMTQSPATLSLSPGERATLSCRASQSVSSYLAWYQQKPGQAPRLLIYDASNRATGIPARFSGSGSGTDFTLTISSLEPEDFAVYYCQQRSNWPPYTFGQGTKVEIK
B9: SEQ ID NOs: 661/665 (HCVR/LCVR) (antibody, V domains shown)
VH: EVQLVESRAEMKKPGESLKISCKGSGYTFTNHWIAWVRQMPGKGLEWMGIIYPGDSDTRYSPSFEGQVTISADKSISTAYLQWSSLKASDTAMYYCARRGYTYGADFYGLDVWGQGTRVTVSS
VL: not shown
B10: SEQ ID NOs: 653/657 (HCVR/LCVR) (antibody, V domains shown)
VH: EVQLVESGGGLVQPGRSLRLSCAASGFTFDDYAMHWVRQAPGKGLEWVSGISWNSGSIGYADSVKGRFTISRDNAKNSLYLQMNSLRAEDTALYYCAKMGPDPAHDYGRKNDAFDIWGQGTMVTVSS
VL: DIVMTQSPSSLSASVGDRVTITCRASQSMSSYLNWYQQKPGKAPKLLIYAASSLQSGVPSRFSGSGSGTDFTLTISSLQPEDFATYYCQQSYSTLTFGGGTKLEIK
B11: SEQ ID NOs: 57/61 (HCVR/LCVR) (antibody, V domains shown)
VH: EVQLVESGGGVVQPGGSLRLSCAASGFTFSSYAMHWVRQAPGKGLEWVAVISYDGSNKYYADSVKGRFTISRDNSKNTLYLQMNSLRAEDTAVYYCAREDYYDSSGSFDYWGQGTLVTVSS
VL: QSVLTQPASVSGSPGQSITISCTGTSSDVGGYNYVSWYQQHPGKAPKLMIYDVSNRPSGVSNRFSGSKSGNTASLTISGLQAEDEADYYCSSYTSSSTRHWVFGGGTKLTVL
B12: SEQ ID NOs: 525/529 (HCVR/LCVR) (antibody, V domains shown)
VH: QVQLQESGPGLVKPSGTLSLTCAVSGGSISSSNWWSWVRQPPGKGLEWIGEIYHSGSSNYNPSLKSRVTISVDKSKNQFSLKLNSVTAADTAVYYCAGRYCSGGRCGWFDPWGQGTLVTVSS
VL: QSVLTQPASVSGSPGQSITISCTGTSSDVGSYNLVSWYQQHPGKAPKLMIYEASKRPSGISNRFSGSKSGNTASLTISGLQAEDEADYYCCSYAGSSTWVFGGGTKPTVL
B13: SEQ ID NOs: 305/309 (HCVR/LCVR) (antibody, V domains shown)
VH: EVQLVESGGGLVKPGGSLRLSCAASGFTFGSYSMSWVRQAPGKGLEWVSSISRSSSYIYNADSVRGRLTISRDNAKNSLYLQMNSLRVEDTAVYYCARDQPLPDILTGYYTGPLDYWGQGTLVTVSS
VL: not shown
B14: SEQ ID NOs: 421/425 (HCVR/LCVR) (antibody, V domains shown)
VH: EVQLVQSGAEVKKPGASVKVSCKASGYTFTSYDINWVRQATGQGLEWMGWMNPNSGNTGYAQKFQGRVTMTRNTSISTAYMELSSLRSEDTAVYYCARVVGSSWYPVDAFDIWGQGTRVTVSS
VL: QSVLTQPASVSGSPGQSITISCTGTSSDVGGYNYVSWYQQHPGKAPKLMIYDVSNRPSGVSNRFSGSKSGNTASLTISGLQAEDEADYYCSSYTSSSTLVVFGGGTKLTVL
B15: SEQ ID NOs: 509/513 (HCVR/LCVR) (antibody, V domains shown)
VH: QVQLQQSGPGLVKPSETLPLTCTVSGGSISSSSYYWGWIRQPPGKGLEWIGSVFYSGSTYYNPSLKSRVTISVDTSKNQLSLKLSSVTAADTAVYYCARQVRQWLEDDAFDIWGQGTMVTVSS
VL: DIQLTQSPSSLSASVGDRVTITCRASQGIRNDLGWYQQKPGKAPKRLIYAASSLQSGVPSRFSGSGSGTEFTLTISSLQPEDFATYYCLQHNSYPLTFGGGTKVDIK
B16: SEQ ID NOs: 549/553 (HCVR/LCVR) (antibody, V domains shown)
VH: QVQLVQPGAEVKKPGASVKVSCKASGYTFTSYGISWVRQAPGQGLEWMGWISAYNGDTNYAQKLQGRVTMTTDTSTSTAYMELRSLKSDDTAVYYCARFDYGYPYSSWSVLSIDYWGQGTLVTVSS
VL: B15 VL with Q3V, L4M, V104L, D105E
B17: SEQ ID NOs: 637/641 (HCVR/LCVR) (antibody, V domains shown)
VH: QVQLVESGGGLVQPGRSLRLSCAASGFTFDDYAMHWVRQAPGKGLEWVSGISWNSGSIGYADSVKGRFTISRDNAKNSLYLQMNSLRAEDTALYYCAKAEPEVGGYDYYMDVWGKGTMVTVSS
VL: not shown
B18: SEQ ID NOs: 65/69 (HCVR/LCVR) (antibody, V domains shown)
VH: QLQLVESGPGLVKPSETLSLTCTVSGGSISSYFWSWIRQPPGKGLEWIGYIYYSGSTNYNPSLKSRVTISVDTSKNQFSLKLSSVTAADTAVYYCARHSQGWLQQAVAFDIWGQGTMVTVSS
VL: not shown
B19: SEQ ID NOs: 353/357 (HCVR/LCVR) (antibody, V domains shown)
VH: EVQLVQSGAEVKKPGSSVKVSCKASGGTFSSYAISWVRQAPGQGLEWMGGIIPIFGTTNYAQKFQGRVTITTDESTSTAYMELSSLRSEDTAVYYCARVYSYDSSGYYLEYWGQGTRVTVSS
VL: EIVLTQSPATLSLSPGERATLSCRASQSVSSYLAWYQQKPGQAPRLLIYDASNRATGIPARFSGSGSGTDFTLTISSLEPEDFAVYYCQQRSNWPPSITFGQGTRLEIK
B20: SEQ ID NOs: 461/465 (HCVR/LCVR) (antibody, V domains shown)
VH: EVQLVESGAEVKKPGSSVKVSCKASGGTFSSYAISWVRQAPGQGLEWMGGIIPIFGTANYAQKFQGRATITTDESTSTAYMELSSLGSEDTAVYYCARTHSYDNSGQYFDYWGQGTMVTVSS
VL: B19 VL with E1D, L4M, Y32F, S97R, I98L, Q102G, R105K, L106V, E107D
B21: SEQ ID NOs: 581/585 (HCVR/LCVR) (antibody, V domains shown)
VH: EVQLVESGGGLVQPGRSLRLSCAASGFTFDDYAMHWVRQAPGKGLEWVSGISWNSGSIGYADSVKGRFTISRDSAKNSLYLQMNSLRAEDTALYYCAKVATYYYDRSGYYYGGALDYWGQGTLVTVSS
VL: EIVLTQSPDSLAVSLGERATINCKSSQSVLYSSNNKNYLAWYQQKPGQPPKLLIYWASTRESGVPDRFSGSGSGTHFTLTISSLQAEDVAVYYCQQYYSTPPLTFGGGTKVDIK
B22: SEQ ID NOs: 477/481 (HCVR/LCVR) (antibody, V domains shown)
VH: QVQLVESGGGVVQPGRSLRLSCAASGFTFSSYAMHWVRQAPGKGLEWVAVISYDGSNKYYADSVKGRFTISRDNSKNTLYLQMNSLRAEDTAVYYCARSASGSYYGAFDYWGQGTLVTVSS
VL: QTVVTQPASVSGSPGQSITISCTGTSSDVGGYNYVSWYQQHPGKAPKLMIYDVSNRPSGVSNRFSGSKSGNTASLTISGLQAEDEADYYCSSYTSSSTLGLYVFGTGTKVTVL

The binders below were run against T1, stabilized prefusion SARS-CoV-2 S ectodomain (SARS-CoV-2 (Wuhan-Hu-1), UniProt P0DTC2 15-1138) (assay: SPR).
In the case of B1, the Kd is reported as at most 1 nM.
B2 was tested, and the Kd was at most 1 nM.

Each binder was assayed against T1, stabilized prefusion SARS-CoV-2 S … (assay: not named there; ELISA in Example 4).
B3: binds.
B4: binds.
B5: binds.
B6: binds.
B7: binds.
B8: binds.
B9: binds.
B10: binds.
B11: binds.
B12: binds.
B13: binds.
B14: binds.
B15: binds.
B16: binds.
B17: binds.
B18: binds.
B19: binds.
B20: binds.
B21: binds.
B22: binds.

What follows are binders tested against T1, stabilized prefusion SARS-CoV-2 S … (assay: cell-based or functional assay).
B2 was tested, and the “IC50, neutralization of live SARS-CoV-2 virus” value was 0.067 nM.
